Assay results as given in US20210030838A1, “CHEMOTAXIS-POTENTIATING PEPTIDES AND USES THEREOF” (University of Copenhagen, priority 2017, published 2021).
Values belong to the molecule of their own block, whether it stands above or below them.

Legend:
CCR7 = biological target: T1, CCR7 (Homo sapiens, UniProt P32248); assay: CCR7 signalling via Gαi (cAMP decrease, Camyel BRET) in transfected CHO cells; format: cell-based; conditions: BRET ratio; for G-protein signalling via CCR7 induced by the chemokine itself (comparison): FIG. 4A-D; for effect of peptide on CCL19-induced CCR7 signalling / effect of peptide on CCL19 chimera-induced CCR7 signalling / effect of peptide on full-length CCL21-induced CCR7 signalling / effect of peptide on tailless CCL21-induced CCR7 signalling: peptide 10 μM
T1 construct: expressed in transfected cells; host or cells: CHO cells, transient lipofectamine co-transfection with the Camyel cAMP BRET sensor
T1 sequence (P32248 25-378): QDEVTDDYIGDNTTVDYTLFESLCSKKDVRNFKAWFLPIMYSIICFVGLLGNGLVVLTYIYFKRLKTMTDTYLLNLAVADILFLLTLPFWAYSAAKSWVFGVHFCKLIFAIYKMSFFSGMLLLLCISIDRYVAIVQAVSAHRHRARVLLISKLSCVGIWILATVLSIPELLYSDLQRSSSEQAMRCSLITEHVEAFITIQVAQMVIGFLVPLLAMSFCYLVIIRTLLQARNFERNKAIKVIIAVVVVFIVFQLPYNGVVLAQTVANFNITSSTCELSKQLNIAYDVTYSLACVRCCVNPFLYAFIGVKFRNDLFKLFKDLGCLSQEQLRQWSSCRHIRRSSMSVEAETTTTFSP
Procedure: CCR7 signalling induced by CCL19, CCL21, CCL19 chimera (CCL19 with CCL21 tail) and tailless CCL21 was investigated. Signalling was detected as a decrease in cAMP which is reflected by an increase in BRET (Bioluminescence resonance energy transfer) ratio.
CHO cells were grown in RPMI medium with 10% FBS and 1% Penicillin/Streptomycin. Cells where seeded in a concentration yielding 1,000,000 cells/well on transfection day (using 6-well-plates).
Cells were transfected with CCR7 and Camyel-encoding plasmids (in 1:5 ratio) using lipofectamine with a total of […] of DNA and […] lipofectamine per well. After 24 hours, the cells where washed in PBS and resuspended in PBS with glucose (final concentration 5 mM).
After harvesting, cells where pooled in two groups. One group was used as a control, whereas the other was supplemented with SEQ ID NO: 1 (CCL21 tail peptide (D1-4)) in a final concentration of 10 μM.
The cells where plated in a 96-well black-white iso plate according to setup. Coelenterazine (final concentration of 5 μM) was added and cells were incubated for 10 min. The 4 ligands (CCL19, CCL21, CCL19 chimera, and tailless CCL21) were added to respective wells. An equal amount chemokine buffer was added to wells without ligands. Forskolin was added to the wells 5 min after addition of ligands.
The BRET ratio was measured as the ratio eYFP/RLuc (BRET 525 emission/BRET 485 emission). In the absence of ligand, bioluminescence resonance energy transfer (BRET) between RLuc and eYFP, both harboured by the Camyel sensor, is high, giving rise to emission from both RLuc and eYFP and a concomitant high BRET ratio. When cAMP binds to the camyel sensor, bioluminescence resonance energy transfer from RLuc to eYFP is decreased, lowering emission from eYFP and thus lowering the BRET ratio. This means that stimulation of receptors that signal via an increase in cAMP leads to a decrease in BRET ratio. The opposite is the case upon stimulation of chemokine receptors that signal via a decrease in cAMP, giving rise to an increase in eYFP and thus BRET ratio.

neutrophil = conditions: through inhibition of GAG-binding of CXCL8; cited from earlier work
[1] = test system: monocyte derived human DCs (moDC); assay: Ibidi 3D μ-slide chemotaxis assay of monocyte derived human DCs (moDC); format: cell-based; conditions: for potentiating effect on CCL21 induced chemotaxis of moDC (in words): FIG. 3, 6, 7, 8; for potentiation of moDC chemotaxis induced by CCL19: CCL19 1 and 10 nM, FIG. 1 column 5-8
Procedure: Ibidi3D μ-slide chemotaxis assay. Mature monocyte derived human DCs were thawed by adding pre-warmed X-vivo, 2% FCS and Glutamine, dissolving in a total of 10 ml of medium. After centrifugation (220×g, 5 min), the DCs were resuspended in fresh medium and left to acclimatize for 20 min.
The collagen mixture with cells was prepared according to the manufacturer's protocol. Briefly, 10 μl 7.5% NaHCO3 was mixed with 20 μl 10×MEM and 150 μl Pure Col was added. After mixing, 90 μl of a mixture of DCs (1×10^6 cells/ml) and CCL21 Tail peptide (final concentration 10 μM) was added. The cell/collagen solution was transferred to the ibidi μ-slide channel holding 6 μl. The collagen with cells was allowed to crosslink in the incubator for 45 minutes in a humidified petridish (holding napkins wetted in sterile water). While filling sink and source reservoirs, the channel and second reservoir were kept plugged. Medium with chemokine buffer (X-vivo 15, 2% HS, glutamine) and Tail-peptide was added to the sink (60 μl), and medium with chemokine plus Tail-peptide was added to the source (60 μl). The setup was transferred to Time-lapse. Cells were tracked for 10 hours and films were analyzed using Autozell tracking program. A population based chemotactic index (CI) was extracted using MatLab.

[2] = test system: monocyte derived human DCs (moDC); assay: as above; format: cell-based; conditions: 10 nM CCL21; peptide dose dependent; FIG. 1 column 1-4
[3] = test system: CT26-FL3-luc cancer cells; assay: In vivo cancer growth of CT26-FL3-luc cells in Balb/c mice (bioluminescence, IVIS); conditions: FIG. 5; for tumor growth (bioluminescent signal, total flux): Balb/c mice
Procedure: SEQ ID NO: 1 was tested for its effect on in vivo cancer growth in mice. Female Balb/c mice were injected intraperitoneally with 1.5×10^5 CT26-FL3-luc cancer cells on day 0. The CT26-FL3-luc cell line is derived from a highly metastatic murine colorectal cancer and has been engineered to express luciferase. On days 1, 2, and 3, the mice were injected intraperitoneally with either 0.25 μg murine CCL21, 20 μg human CCL21-Tail peptide (SEQ ID NO: 1), or vehicle (PBS). The CCL21 concentration was determined based on previously published in vivo experiments using CCL21. Administration of SEQ ID NO: 1 functions by a different mechanism than administration of CCL21 as SEQ ID NO: 1 affects the distribution of endogenous CCL21 in the surrounding tissue. Cancer growth was followed over time in live animals by injecting luciferin intraperitoneally and measuring the bioluminescent signal arising from the luciferase-expressing cancer cells using an In Vivo Imaging System (IVIS®) scanner. The bioluminescent signal (total flux) was used to quantify the cancer growth. The number of mice per group was 5-7, and data is shown as mean±SEM.

tumour cells = conditions: CCL21 administered to tumor sites; cited from earlier work

G-protein signalling via CCR7 induced by the chemokine itself (comparison) (CCR7): more potent than CCL21
Molecule: CCL19: chemokine, endogenous ligand of CCR7

Molecule: CXCL9(74-103): CXCL9 C-terminal peptide capable of binding GAGs (Vanheule et al. 2017) (KKKQKNGKKHQKKKVLKVRKSQRSRQKKTT; UniProt Q07325 96-125, looked up, fragment)
CXCL8-induced neutrophil migration (neutrophil): inhibit CXCL8-induced neutrophil migration

Molecule: KDRGASKTG KKGKGSKGCK RTERSQTPKG P (KDRGASKTGKKGKGSKGCKRTERSQTPKGP; listed as Homo sapiens) [SEQ ID NO: 6, CCL21 82-111]
potentiating effect on CCL21 induced chemotaxis of moDC (in words) [1]: reduced capability to potentiate chemotaxis

Molecule: PSPQKPAQGCRKDRGASKTGK (PSPQKPAQGCRKDRGASKTGK; listed as Homo sapiens) [SEQ ID NO: 36, C terminally truncated fragment of CCL21 71-111]
potentiating effect on CCL21 induced chemotaxis of moDC (in words) [1]: did not potentiate chemotaxis

effect of peptide on CCL19-induced CCR7 signalling (CCR7; FIG. 4): no effect
effect of peptide on CCL19 chimera-induced CCR7 signalling (CCR7; FIG. 4): potentiated
effect of peptide on full-length CCL21-induced CCR7 signalling (CCR7; FIG. 4): potentiated
effect of peptide on tailless CCL21-induced CCR7 signalling (CCR7; FIG. 4): no effect
effect of peptide on CCL19 chimera-induced CCR7 signalling (CCR7; FIG. 4, listed as CCL21 71-111): increased CCR7 signalling
effect of peptide on full-length CCL21-induced CCR7 signalling (CCR7; FIG. 4, listed as CCL21 71-111): increased CCR7 signalling
Molecule: PSPQKPAQGCRKDRGASKTGKKGKGSKGCKRTERSQTPKGP (PSPQKPAQGCRKDRGASKTGKKGKGSKGCKRTERSQTPKGP; listed as Homo sapiens) [SEQ ID NO: 1, full length C-terminal tail of CCL21, CCL21 71-111 (D1-D4)]
potentiation of moDC chemotaxis induced by CCL19 ([1]; peptide 10 uM): less than two fold
potentiation of moDC chemotaxis induced by CCL19 ([1]; peptide 10 uM, listed as CCL21 71-111): only two fold
potentiation of moDC chemotaxis induced by CXCL12gamma ([1]; CXCL12gamma 20 and 100 nM, peptide 10 uM, FIG. 1 column 9-12): no strong chemotaxis signal
potentiating effect on CCL21 induced chemotaxis of moDC (in words) [1]: retained full potency
potentiation of moDC chemotaxis induced by CCL21 [2]: up to 26 fold
tumor growth (bioluminescent signal, total flux) ([3]; 20 μg peptide intraperitoneally on days 1, 2, 3): decreased tumor growth
effectiveness on tumor growth compared with CCL21 treatment ([3]; 20 μg peptide vs 0.25 μg murine CCL21, intraperitoneally): more effective than treatment with the chemokine CCL21
effect of peptide on CCL19-induced CCR7 signalling (CCR7; FIG. 4, listed as CCL21 71-111): essentially no difference in CCR7 signalling
effect of peptide on tailless CCL21-induced CCR7 signalling (CCR7; FIG. 4, listed as CCL21 71-111): essentially no difference in CCR7 signalling

Molecule: RKDRGASKTGKKGKGSKGCKRTERSQTPKGP (RKDRGASKTGKKGKGSKGCKRTERSQTPKGP; listed as Homo sapiens) [SEQ ID NO: 4, CCL21 81-111 (D2-D4)]
potentiating effect on CCL21 induced chemotaxis of moDC (in words) [1]: retained full potentiating effect

Molecule: TG KKGKGSKGCK RTERSQTPKG P (TGKKGKGSKGCKRTERSQTPKGP; listed as Homo sapiens) [SEQ ID NO: 13, CCL21 89-111]
potentiating effect on CCL21 induced chemotaxis of moDC (in words) [1]: retain full potentiating effect

G-protein signalling via CCR7 induced by the chemokine itself (comparison) (CCR7): resembles CCL21 signalling
B1: CCL19 chimera: CCL19 with CCL21 Tail peptide attached at the C-terminus (protein)
chain: GTNDAEDCCLSVTQKPIPGYIVRNFHYLLIKDGCRVPAVVFTTLRGRQLCAPPDQPWVERIIQRLQRTSAKMKRRSSPSPQKPAQGCRKDRGASKTGKKGKGSKGCKRTERSQTPKGP

B2: murine CCL21: murine chemokine CCL21 injected intraperitoneally as comparison treatment (protein, UniProt P84444 24-133, looked up)
C-C motif chemokine 21a: SDGGGQDCCLKYSQKKIPYSIVRGYRKQEPSLGCPIPAILFSPRKHSKPELCANPEEGWVQNLMRRLDQPPAPGKQSPGCRKNRGTSKSGKKGKGSKGCKRTEQTQPSRG
tumor growth (bioluminescent signal, total flux) ([3]; 0.25 μg murine CCL21 intraperitoneally on days 1, 2, 3): decreased tumor growth

B3: SDGGAQDCCLKYSQRKIPAKVVRSYRKQEPSLGCSIPAILFLPRKRSQAELCADPKELWVQQLMQHLDKTPSPQKPAQGCRKDRGASKTGKKGKGSKGCKRTERSQTPKGP (protein, listed as Homo sapiens)
chain: SDGGAQDCCLKYSQRKIPAKVVRSYRKQEPSLGCSIPAILFLPRKRSQAELCADPKELWVQQLMQHLDKTPSPQKPAQGCRKDRGASKTGKKGKGSKGCKRTERSQTPKGP
notes: chemokine, endogenous ligand of CCR7; full length CCL21 without the signal peptide
growth of tumour cells (tumour cells): reduced growth of the tumour cells
